Test results: PMC6997759 (2019)

Assays:
[1] = biological target: AE.A244gp120Δ11 (N-terminal 11 aa deleted) (HIV-1 (clade AE, A244)); assay: SPR; apparent affinity
B.MNgp120Δ11 = assay: SPR; apparent affinity

B1: DH677.3 MAb (antibody, V domains shown)
VH: QVQLVQSGAEVQKPGASVKVSCKASGYTFASYDINWVRQATGQGLEWMGWMNPKTGNTGYAQKFQGRVTLTRNTSISTAYMELTSLRSEDTAVYYCATYRIIAAVGYRYFQYWGQGTLVTVSS
VL: DIQLTQSPSSLSASVGDSVTITCRASQGFGNYLAWYQQRPGKVPEVLIYAATTLQSGVPSRFSGSGSGTDFTLTISSLQPEDVATYYCQKYNSAPFTFGQGTRLEIK
Kd [1]: 0.6 nM | Kd (B.MNgp120Δ11): 7.02 nM
